This note sets out measurements from article doi:10.1101/2024.01.05.574393 (bioRxiv, 2024).

First the molecules themselves.
B2: FLNCd24 (domain 24 of filamin C, residues 2630-2724), wild type (domain or fragment)
chain: GSKFSSDASKVVTRGPGLSQAFVGQKNSFTVDCSKAGTNMMMVGVHGPKTPCEEVYVKHMGNRVYNVTYTVKEKGDYILIVKWGDESVPGSPFKVKV

Data set [1] deals with B2. Nature of the data set: crystal structure.
Data set [2] has as its target HSPB7ΔN (residues 78-175 of isoform 2) (human, UniProt Q9UBY9-2 78-175). Nature of the data set: native MS.
Data set [3] concerns the molecule itself. Nature of the data set: native MS.
Data set [4] concerns the molecule itself. Nature of the data set: native MS. This is another data set of the same source.

B1: HSPB7ACD C131S (residues 78-162 of isoform 2) (domain or fragment)
chain: not shown
In the case of B1, in data set [1], the binding result is reported as “binds”. As for B2, the Kd in data set [2] came out at 6.7 ± 1.4 nM; in the data set “native MS [3]”, 75.9 ± 8.4 nM. In addition, the “stoichiometry N” value in “native MS [4]” was determined as 2.

B3: FLNCd24 Y2683E (phospho-mimic, residues 2630-2724) (domain or fragment)
chain: GSKFSSDASKVVTRGPGLSQAFVGQKNSFTVDCSKAGTNMMMVGVHGPKTPCEEVEVKHMGNRVYNVTYTVKEKGDYILIVKWGDESVPGSPFKVKV
In the case of B3, the equilibrium dissociation constant (Kd) in the data set “native MS [3]” turned out to be 4050 ± 557 nM.

B4: FLNCd24 T2677D (phospho-mimic, residues 2630-2724) (domain or fragment)
chain: GSKFSSDASKVVTRGPGLSQAFVGQKNSFTVDCSKAGTNMMMVGVHGPKDPCEEVYVKHMGNRVYNVTYTVKEKGDYILIVKWGDESVPGSPFKVKV
The molecule B4 registered a Kd in the data set “native MS [3]” of 8.5 ± 1 nM.

In general, Kd refers to a measure of binding affinity in units of concentration. Read a low Kd as tighter binding. In general, stoichiometry N refers to the number of molecules, sites or subunits per partner or assembly.
